Each sequence was assayed on MS2 coat protein (assay: apparent KD of MS2 coat protein, switch OFF state (with FMN for OFF switches, without FMN for ON switches); designed switch direction (-1 OFF switch, 1 ON switch): -1; higher = weaker reporter binding). Conditions: FMN input: 0 or 200 uM; Eterna round: R93 (includes R88 designs).
Procedure, shortened: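 Titrations with SNAP-549-labelled MS2 coat protein ran in twofold steps from 0.7 or 1.5 nM to 3 µM, each step taking 0.8–1.5 h at the start and 10–20 min toward the end. The targets were designed RNA switches transcribed on-chip from Illumina sequencing clusters, held in 100 mM Tris-HCl pH 7.5, 80 mM KCl, 4 mM MgCl2, without or with constant ligand. Apparent KD was taken per design as the median of normalised cluster binding-curve fits.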
“AAAUUGUCAGGAUAUGUACGAACAACAAAACAAAUAACGGUACAGAAGGGACAUGAGGAUCACCCAUGUAUAAA [May 72]” was tested, and the “apparent KD of MS2 coat protein” value was 73.2 nM. With “UCGUGGUCAGGAUAUACAUGAGGAUCACCCAUGUAAAAGAACACAAAGGAGAGACGACGUAGAAGGGACAAAUA [Erqugere]” the “apparent KD of MS2 coat protein” value was 42.1 nM. With “AACAGUACAGGAUAUACAUGAGGAUCACCCAUGUGGGUAAAAAGAUCGAGAGAUCCAUGUAGAAGGGUACUGGA [JL In the Red 05]” the “apparent KD of MS2 coat protein” value was 37.9 nM. “AUCGAUCGAGGAUAUACAUGAGGAUCACCCAUGUAAAAAAAAAAAAAGUCCUCAGGACGUAGAAGGCGACGCAA [JR_Exc003_Sub401]” was tested, and the “apparent KD of MS2 coat protein” value was 22.3 nM. In the case of “AACUGACAUGAGGAUCACCCAUGUCAGGAUAUGAUUUGACGAAAAAAAAAAAGUCAUAUCAGAAGGGACAUGGA [Design 81: Sub-opt UB]”, the “apparent KD of MS2 coat protein” value is reported as 41.5 nM. With “AUAAAACAUGAGGAUCACCCAUGUGAGGAUAUCCUAAAAGAAAGAAAAAAAAAAAAAUGGAGAAGGCACAAUAA [Amethyst 47]” the “apparent KD of MS2 coat protein” value was 159 nM. For “AAAGGUGCAGGAUAUGCGUGGAAAAAGUGUAUUCAAAAAAAACAUGAGGAUCACCCAUGUAGAAGGGUACCAAA [MS2 Riboswitches On Chip Exclusion 2 wbt2]”, the “apparent KD of MS2 coat protein” value was 165 nM. In the case of “AAAGAGUGAGGAUAUUCGGAUAGGAAAACGAAAACCUAUCCGAAGAAGGCACAUGAGGAUCACCCAUGUAAAAA [67% Ecls-II - Early G segment 2]”, the “apparent KD of MS2 coat protein” value is reported as 39.5 nM. “CUCAUGUCAGGAUAUCAGUAGUAAAAAAAUAAAAUUACUACUGAGAAGGGACAUGAGGAUCACCCAUGUCAAAA [EX4 363: Super Stable 63]” was tested, and the “apparent KD of MS2 coat protein” value was 19.8 nM. In the case of “AGCUAGUCAGGAUAUACGAGAAUGACAAAAGACGUGAAGGGACAUGAGGAUCACCCAUGUAGAAGGGACUAGCA [Diamond 24]”, the “apparent KD of MS2 coat protein” value is reported as 117 nM. “AAAAAGGCAGGAUAUGCAUACCCACGGAAAAAAAGGCUGGGACAUGAGGAUCACCCAUGUAGAAGGGCCAAAAA [Dora Explored 12 - Jieux - Exclusion 2]” was tested, and the “apparent KD of MS2 coat protein” value was 14.5 nM. In the case of “GCAGGCCAAGGAUAUACAUGAGGAUCACCCAUGUGAGAGAAAAAAGUGAGAAAGAAAAGUAGAAGGUGGUUUGG [salish99-ex3-113]”, the “apparent KD of MS2 coat protein” value is reported as 114 nM. In the case of “CCUGGCUUAGGAUAUACAGGAACCGGGAACCCGGAAGUGAAACAUGAGGAUCACCCAUGUAGAAGGAAGAAAGC [Leusanzaus]”, the “apparent KD of MS2 coat protein” value is reported as 19.1 nM. With “CUCAAGUCAGGAUAUAUAAGAAAAGAAGAGAAAGAAAAGAAAUAGAAGGGACAUGAGGAUCACCCAUGUAAGAA [EteRNA is fun!]” the “apparent KD of MS2 coat protein” value was 36.9 nM. For “AAACCACAUGAGGAUCACCCAUGUUAGGAUAUGCUAUGGAAAAUAAAAAUAAAACAUAGCAGAAGGGACAAAAA [Denovo 7]”, the “apparent KD of MS2 coat protein” value was 18.7 nM. For “AAAAGACAUGAGGAUCACCCAUGUGAGGAUAUGACGUAAAUAAAGAAAGAAGAAAUCGUCAGAAGGCACACCUA [55%, Disencluded 2, 1]”, the “apparent KD of MS2 coat protein” value was 63.4 nM. With “CUCUAGUGAGGAUAUCCAAGAAAAGAAGAGAAAGAAAAGAAGGAGAAGGCACAUGAGGAUCACCCAUGUAAGAA [EteRNA is fun!]” the “apparent KD of MS2 coat protein” value was 35.8 nM. For “CUCAUGUCAGGAUAUCCAUGAAAUGAAGUGAAAGAAAAGAAGGAGAAGGGACAUGAGGAUCACCCAUGUUAGAA [EteRNA is fun!]”, the “apparent KD of MS2 coat protein” value was 17.1 nM. With “GUGUACAGAGGAUAUACUGGAGCUAGGAAACUAGCAAGAUCACAUGAGGAUCACCCAUGUAGAAGGCUGUACAC [Ex2: 743]” the “apparent KD of MS2 coat protein” value was 20.2 nM. “AAGAACGAAGGAUAUACAAAAUAAAAGAAAAGAAAGAAAGAACAUGAGGAUCACCCAUGUAGAAGGUCGAAGAA [Awybre Hor I]” was tested, and the “apparent KD of MS2 coat protein” value was 25.8 nM. In the case of “AGAAAACAUGAGGAUCACCCAUGUGAGGAUAUCGAAAAGAAAAGAAAAGAAAGAAGAAUGAGAAGGCACAAGAA [Khaba]”, the “apparent KD of MS2 coat protein” value is reported as 28.1 nM. “AAGUCGUGAGGAUAUACAUGGAUAUACAUUCAUGUGGACCUACAUGAGGAUCACCCAUGUAGAAGGCACGAAUA [AJ 49]” was tested, and the “apparent KD of MS2 coat protein” value was 53.5 nM. For “AAAAAACAUGAGGAUCACCCAUGUAAGGAUAUGCGAAAAUAAAAUAAAAUAAAAUAAAGCAGAAGGUACAAAAA [66%, Wbt, 1]”, the “apparent KD of MS2 coat protein” value was 37.7 nM. With “CAGUACUGAGGAUAUACAUGAGGAUCACCCAUGUGGUCAAGCUAGGAAACUAGCAAAUGUAGAAGGCAGUACUG [Ex3: 812]” the “apparent KD of MS2 coat protein” value was 35.6 nM. “GGAUGUCUAGGAUAUACAUGAGGAUCACCCAUGUGAGAGAAAAAAGUGAGAAAGAAAAGUAGAAGGAGGUGUCG [salish99-ex3-88]” was tested, and the “apparent KD of MS2 coat protein” value was 37.5 nM. For “AGUAGUACAGGAUAUACAUGAGGAUCACCCAUGUGAGAAUUAAGUGGCGUACCACAAAGUAGAAGGGUACUACA [Mat - Exclusion 3 - JL mod - D38]”, the “apparent KD of MS2 coat protein” value was 211 nM. “GAAAAGGCAGGAUAUGCAAGGAUAUAGAAGGAAAAAAAAAAACAUGAGGAUCACCCAUGUAGAAGGGCCAAAAG [salish99-ex2-10]” was tested, and the “apparent KD of MS2 coat protein” value was 33.5 nM. For “CUCUUGUCAGGAUAUUGAAGAAAAGAAAAGAAAGAAAAGAACAAGAAGGGACAUGAGGAUCACCCAUGUAAGAA [EteRNA is fun!]”, the “apparent KD of MS2 coat protein” value was 60.7 nM. “GGAAAGCAAGGAUAUACAAACAAACAAACAAACAAAAGGGAACAUGAGGAUCACCCAUGUAGAAGGUGCAAACA [Exclusion 2 XX]” was tested, and the “apparent KD of MS2 coat protein” value was 31.8 nM. With “AAAAGUACAGGAUAUACAUGAGGAUCACCCAUGUGAAAAUUAAGUGGCGUACAACAAAGUAGAAGGGUACUGGA [Ruby 52]” the “apparent KD of MS2 coat protein” value was 44.6 nM. In the case of “AACCCGCUAGGAUAUACAGCAGGGAUUCGAAAACCCACGAAACAUGAGGAUCACCCAUGUAGAAGGAGUAGGGA [Bereatenat]”, the “apparent KD of MS2 coat protein” value is reported as 21.1 nM. “ACUAAUGAAGGAUAUACAAACAAAAAAAAAACAACAAACAAACAUGAGGAUCACCCAUGUAGAAGGUCAAAAAU [JR_Exc002_Sub1202]” was tested, and the “apparent KD of MS2 coat protein” value was 17.8 nM. With “AAAAAGUCAGGAUAUACAUGAGGAUCACCCAUGUAGCAUACGAAAAAGAGUGUGCAGUGUAGAAGGGACAAAAA [Exclusion3-cac3]” the “apparent KD of MS2 coat protein” value was 21.2 nM. With “GAAAAGUUAGGAUAUACAGAUAAAAAAACGAAAAAAAAUCUGUAGAAGGAACAUGAGGAUCACCCAUGUAAAAG [Mat - Exclusion 4 - Mayanna - D103]” the “apparent KD of MS2 coat protein” value was 30.8 nM. In the case of “GGUUGGCGAGGAUAUACAUGAGGAUCACCCAUGUGAGAGAAAAAAGUGAGAAAGAAAAGUAGAAGGCGCUGACC [salish99-ex3-04]”, the “apparent KD of MS2 coat protein” value is reported as 242 nM. “GAUCAGCUAGGAUAUACAUUAAUCCGAAAUGAGAAGAAAGAACAUGAGGAUCACCCAUGUAGAAGGAGCCAGUA [Usinisat]” was tested, and the “apparent KD of MS2 coat protein” value was 32.1 nM. In the case of “AACGCGUCAGGAUAUAGCAUAAAUUACGUAGUACGACCAUACUAGAAGGGACAUGAGGAUCACCCAUGUGGGUA [JR_Exc004_Sub207]”, the “apparent KD of MS2 coat protein” value is reported as 90.4 nM. With “AGCUAGUCAGGAUAUACGAACAUGUCAAAAGACGUGAACGGACAUGAGGAUCACCCAUGUAGAAGGGACUAGCA [Diamond 5]” the “apparent KD of MS2 coat protein” value was 17.5 nM. For “AACAUGUUAGGAUAUUCAAGAAAAGAAAAGAAAGAAAAGAAGAAGAAGGAACAUGAGGAUCACCCAUGUAAGAA [EteRNA is fun!]”, the “apparent KD of MS2 coat protein” value was 27.1 nM. In the case of “AAGAACGGAGGAUAUACAUGAAAGAAAGAAAAGAAAAGAAAACAUGAGGAUCACCCAUGUAGAAGGCCGAAGAA [EteRNA is fun!]”, the “apparent KD of MS2 coat protein” value is reported as 53.3 nM. With “AAAAGUUGAGGAUAUACAAAAUGAUUGCGAAAUCAAUUAAAACAUGAGGAUCACCCAUGUAGAAGGCGAUAAAA [Banishment 4 - Jieux - Exclusion 2]” the “apparent KD of MS2 coat protein” value was 21.6 nM. With “AGCUAGUGAGGAUAUACGAACAAGUCAACGGACUGUAAGGGACAUGAGGAUCACCCAUGUAGAAGGCACUAGCA [Diamond 58]” the “apparent KD of MS2 coat protein” value was 148 nM. For “AGAAAACAUGAGGAUCACCCAUGUGAGGAUAUCUAAAAGAAAAGAAAAGAAAGAAGAAGGAGAAGGCACAAGAA [Sanakhte]”, the “apparent KD of MS2 coat protein” value was 29.4 nM. “AGCAAACAUGAGGAUCACCCAUGUUAGGAUAUGAACGAAAUAAAAUAAAAAUAAAAGUUCAGAAGGGACGAGCA [Mat - Exclusion 1 - Eli mod - D27]” was tested, and the “apparent KD of MS2 coat protein” value was 37.1 nM. In the case of “CGUUGGCGAGGAUAUACAUGAGGAUCACCCAUGUGAGAGAAAAAAGUGAGAAAGAAAAGUAGAAGGCGCUGACC [salish99-ex3-13]”, the “apparent KD of MS2 coat protein” value is reported as 162 nM. For “AAAAAGAUAGGAUAUACAUGAAAAAAAAAAAAAAAAAAAAGACAUGAGGAUCACCCAUGUAGAAGGGUCAAAAA [water's exclusion 2 2nd]”, the “apparent KD of MS2 coat protein” value was 42.1 nM.

Source: the supplement of paper PMC9170038
